Laboratory results as given in paper PMC12214019, “Mechanistic insights into direct DNA and RNA strand transfer and dynamic protein exchange of SSB and RPA”.

What was measured:
RPA (yeast) [1] = target: T1, RPA (yeast) (Saccharomyces cerevisiae, UniProt P22336;P26754;P26755 1-621;1-273;1-122); assay: competition (smFRET strand transfer); 100 nM competitor from dT40-RPA; rate jumps between dT20 and dT30; 10 mM Tris-HCl pH 7.5, 100 or 300 mM NaCl, 10% glycerol, 10 mM Trolox, 0.5% glucose, glucose oxidase/catalase, ~23 C; settings: protein: recombinant; copies: 1;1;1
T1 sequence (P22336 whole entry, chain 1 of 3): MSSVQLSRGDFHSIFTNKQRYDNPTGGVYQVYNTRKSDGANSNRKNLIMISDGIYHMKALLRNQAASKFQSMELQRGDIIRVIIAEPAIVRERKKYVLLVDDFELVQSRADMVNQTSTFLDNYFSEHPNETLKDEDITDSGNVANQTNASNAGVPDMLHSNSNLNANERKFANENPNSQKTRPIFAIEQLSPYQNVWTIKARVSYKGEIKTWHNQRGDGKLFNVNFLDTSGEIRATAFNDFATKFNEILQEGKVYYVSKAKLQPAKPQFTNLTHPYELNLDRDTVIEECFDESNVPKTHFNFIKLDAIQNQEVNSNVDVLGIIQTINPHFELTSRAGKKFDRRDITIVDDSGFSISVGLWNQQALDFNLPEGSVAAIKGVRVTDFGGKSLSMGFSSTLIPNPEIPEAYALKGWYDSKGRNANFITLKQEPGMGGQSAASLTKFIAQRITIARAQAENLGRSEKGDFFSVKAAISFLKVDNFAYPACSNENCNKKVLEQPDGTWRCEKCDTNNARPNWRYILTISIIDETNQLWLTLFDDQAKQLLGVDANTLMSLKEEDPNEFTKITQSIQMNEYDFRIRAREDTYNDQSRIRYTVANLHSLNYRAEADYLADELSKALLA
T1 sequence (P26754 whole entry, chain 2 of 3): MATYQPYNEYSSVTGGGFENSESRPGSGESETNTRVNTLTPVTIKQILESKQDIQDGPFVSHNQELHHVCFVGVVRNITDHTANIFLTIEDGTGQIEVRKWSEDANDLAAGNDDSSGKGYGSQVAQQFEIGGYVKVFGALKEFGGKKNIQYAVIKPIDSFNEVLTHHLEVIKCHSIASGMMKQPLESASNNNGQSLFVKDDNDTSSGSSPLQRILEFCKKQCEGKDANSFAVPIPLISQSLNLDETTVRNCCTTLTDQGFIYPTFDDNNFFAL
T1 sequence (P26755 whole entry, chain 3 of 3): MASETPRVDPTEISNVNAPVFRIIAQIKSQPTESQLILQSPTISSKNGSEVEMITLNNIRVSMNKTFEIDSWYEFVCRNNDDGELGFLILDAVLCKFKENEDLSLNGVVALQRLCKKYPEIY

SSB [2] = target: T2, SSB (UniProt P0AGE0 2-178); assay: competition (smFRET strand transfer); from dT70-SSB, 300 mM NaCl; 6.1±0.1e4 M-1 s-1; 10 mM Tris-HCl pH 7.5, 100 or 300 mM NaCl, 10% glycerol, 10 mM Trolox, 0.5% glucose, glucose oxidase/catalase, ~23 C; settings: protein: recombinant; chain copies: 4
T2 sequence (P0AGE0 2-178): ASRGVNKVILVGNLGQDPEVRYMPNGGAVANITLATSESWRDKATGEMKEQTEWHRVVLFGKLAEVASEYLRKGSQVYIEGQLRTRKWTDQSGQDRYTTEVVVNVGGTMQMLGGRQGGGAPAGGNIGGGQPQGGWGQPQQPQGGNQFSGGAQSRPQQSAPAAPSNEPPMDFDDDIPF

RPA (yeast) [3] = target: T1, RPA (yeast); assay: competition (smFRET strand transfer); from dT70-RPA, 100 mM NaCl; 9.1±0.4e4 M-1 s-1; 10 mM Tris-HCl pH 7.5, 100 or 300 mM NaCl, 10% glycerol, 10 mM Trolox, 0.5% glucose, glucose oxidase/catalase, ~23 C; settings: protein: recombinant; copies: 1;1;1
hRPA = hRPA (Homo sapiens, UniProt P27694;P15927;P35244 1-616;1-270;1-121); assay: competition (smFRET strand transfer); from dT40-hRPA, 100 mM NaCl; 8.3±0.6e4 M-1 s-1; 10 mM Tris-HCl pH 7.5, 100 or 300 mM NaCl, 10% glycerol, 10 mM Trolox, 0.5% glucose, glucose oxidase/catalase, ~23 C; settings: protein: recombinant; copies: 1;1;1
hRPA, sequence (P27694 whole entry, chain 1 of 3): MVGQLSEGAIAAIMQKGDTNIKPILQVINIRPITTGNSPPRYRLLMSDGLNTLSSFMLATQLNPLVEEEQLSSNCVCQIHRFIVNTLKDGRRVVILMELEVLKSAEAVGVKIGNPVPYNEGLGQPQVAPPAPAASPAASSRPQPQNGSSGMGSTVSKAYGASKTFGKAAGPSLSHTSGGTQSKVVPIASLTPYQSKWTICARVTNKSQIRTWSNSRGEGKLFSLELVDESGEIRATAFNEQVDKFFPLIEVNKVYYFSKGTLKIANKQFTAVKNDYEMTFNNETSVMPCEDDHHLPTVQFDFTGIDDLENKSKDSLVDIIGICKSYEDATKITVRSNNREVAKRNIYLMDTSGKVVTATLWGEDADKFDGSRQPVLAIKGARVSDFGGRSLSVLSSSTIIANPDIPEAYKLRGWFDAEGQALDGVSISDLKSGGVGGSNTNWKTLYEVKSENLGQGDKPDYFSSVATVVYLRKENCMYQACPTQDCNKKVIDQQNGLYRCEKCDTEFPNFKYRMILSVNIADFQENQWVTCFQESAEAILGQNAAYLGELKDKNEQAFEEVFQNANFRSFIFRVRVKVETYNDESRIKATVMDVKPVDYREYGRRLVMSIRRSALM
hRPA, sequence (P15927 whole entry, chain 2 of 3): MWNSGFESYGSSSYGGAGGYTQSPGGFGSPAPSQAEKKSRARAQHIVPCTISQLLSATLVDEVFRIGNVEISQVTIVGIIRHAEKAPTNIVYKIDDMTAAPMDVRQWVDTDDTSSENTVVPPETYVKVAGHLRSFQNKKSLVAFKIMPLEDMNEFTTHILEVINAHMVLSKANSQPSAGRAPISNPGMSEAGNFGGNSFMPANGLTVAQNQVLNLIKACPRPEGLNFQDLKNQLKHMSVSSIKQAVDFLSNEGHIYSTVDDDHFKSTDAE
hRPA, sequence (P35244 whole entry, chain 3 of 3): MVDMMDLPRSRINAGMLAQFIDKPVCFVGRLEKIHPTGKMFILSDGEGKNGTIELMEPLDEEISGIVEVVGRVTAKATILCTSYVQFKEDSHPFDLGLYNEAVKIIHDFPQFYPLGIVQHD

SSB [4] = target: T2, SSB; assay: competition (smFRET strand transfer); from dT40-SSB, 100 mM NaCl; 9.8±0.2e4 M-1 s-1; 10 mM Tris-HCl pH 7.5, 100 or 300 mM NaCl, 10% glycerol, 10 mM Trolox, 0.5% glucose, glucose oxidase/catalase, ~23 C; settings: protein: recombinant; chain copies: 4
RPA (yeast) [5] = target: T1, RPA (yeast); assay: competition (smFRET strand transfer); from dT40-RPA, 100 mM NaCl; 8.6±0.3e4 M-1 s-1; 10 mM Tris-HCl pH 7.5, 100 or 300 mM NaCl, 10% glycerol, 10 mM Trolox, 0.5% glucose, glucose oxidase/catalase, ~23 C; settings: protein: recombinant; copies: 1;1;1
SSB [6] = target: T2, SSB; assay: single-molecule FRET; 3 nM, ternary intermediate with dT40-SSB, dwell ~0.31 s, 100 mM NaCl; 10 mM Tris-HCl pH 7.5, 100 or 300 mM NaCl, 10% glycerol, 10 mM Trolox, 0.5% glucose, glucose oxidase/catalase, ~23 C; settings: protein: recombinant; chain copies: 4; label: 3' Cy3
RPA (yeast) [7] = target: T1, RPA (yeast); assay: single-molecule FRET; 3 nM, ternary intermediate with dT40-RPA, dwell ~0.27 s, 100 mM NaCl; 10 mM Tris-HCl pH 7.5, 100 or 300 mM NaCl, 10% glycerol, 10 mM Trolox, 0.5% glucose, glucose oxidase/catalase, ~23 C; settings: protein: recombinant; copies: 1;1;1; label: 3' Cy3
RPA (yeast) [8] = target: T1, RPA (yeast); assay: competition (smFRET strand transfer); from U50-RPA, 100 mM NaCl; 4.3±0.4e5 M-1 s-1; 10 mM Tris-HCl pH 7.5, 100 or 300 mM NaCl, 10% glycerol, 10 mM Trolox, 0.5% glucose, glucose oxidase/catalase, ~23 C; settings: protein: recombinant; copies: 1;1;1
SSB [9] = target: T2, SSB; assay: competition (smFRET strand transfer); from U50-SSB, 100 mM NaCl; 2.1±0.2e5 M-1 s-1; 10 mM Tris-HCl pH 7.5, 100 or 300 mM NaCl, 10% glycerol, 10 mM Trolox, 0.5% glucose, glucose oxidase/catalase, ~23 C; settings: protein: recombinant; chain copies: 4

B1: dT30 (ssDNA)
DNA: TTTTTTTTTTTTTTTTTTTTTTTTTTTTTT
B1: binds (RPA (yeast) [1]).

B2: dT60 (ssDNA)
DNA: TTTTTTTTTTTTTTTTTTTTTTTTTTTTTTTTTTTTTTTTTTTTTTTTTTTTTTTTTTTT
B2: binds (SSB [2]); binds (RPA (yeast) [3]).

B3: dT40 (ssDNA)
DNA: TTTTTTTTTTTTTTTTTTTTTTTTTTTTTTTTTTTTTTTT
B3: binds (hRPA); binds (SSB [4]); binds (RPA (yeast) [5]).

B4: dT40-Cy3 (ssDNA)
DNA: B3 DNA
B4: binds (SSB [6]); binds (RPA (yeast) [7]).

B5: U50 (ssRNA)
RNA: UUUUUUUUUUUUUUUUUUUUUUUUUUUUUUUUUUUUUUUUUUUUUUUUUU
B5: binds (RPA (yeast) [8]); binds (SSB [9]).
